Among the data in PMC8460662 are relative presence of GFP species in the aggregates (fraction bound to fibrils) values, retold here.

The target in the experiment is AlexaFluor594-tagged pre-formed fibrils (PFFs) of alpha-synuclein (UniProt P37840). Put plainly: two-colour coincidence detection (TCCD), single-molecule fluorescence; AF594-labelled α-SYN fibrils added to LTE expressing the N-GFP LB protein; fibrils at 1 µM (monomer-equivalent); stationary plate; 300 s traces, quadruplicate; Association Quotient Q.

Turning to “GABARAPL1 (from UniProt Q9H0R8 1-117) (natural protein)”, the relative presence of GFP species in the aggregates (fraction bound to fibrils) stood at 0.14.
